Source: paper PMC3764172

Target: T1, PGN_0753 (HaeR) response regulator, His6-tagged (Porphyromonas gingivalis ATCC 33277) (UniProt B2RIS7)
T1 sequence: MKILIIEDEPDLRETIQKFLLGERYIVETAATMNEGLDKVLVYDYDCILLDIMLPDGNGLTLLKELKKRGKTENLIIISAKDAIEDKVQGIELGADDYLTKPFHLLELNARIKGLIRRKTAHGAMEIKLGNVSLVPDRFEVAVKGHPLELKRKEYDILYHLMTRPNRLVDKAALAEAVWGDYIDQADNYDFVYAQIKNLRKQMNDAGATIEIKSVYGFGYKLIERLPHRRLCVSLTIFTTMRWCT
Assay: EMSA

| Sequence | binding |
| --- | --- |
| TAAGTGATTGAAAGACTTCGTTTGCTGAGATTCGAGCAAATCGTCTTGGGACAAAGATATAAAAAAGTGCCACCGAATTTGCACCTCGTCCCCAAAACACAGGCGTAAAATATCCGCACATCCCGGGACTGCAAAGGGAGAGCATGCTATTTCAGGAAAAATTCAGTTTTACCATGTTATATTTGTAAAAGAAGATCAATCCAAACAGGGCTATCCAGATG (double strand) [haeR (PGN_0753) promoter] | binds |
| CGTATCCGGGTTATACGATCTGTCGTTTGGATATTGAAAATCATTTCTATCGGAACTATACGCTCCATATCGGTGCGGAGAACCTGTTCGATTATAAACCCAAAGCATTGGCATTCAATTCCCCGACATCACCCGGACGTATCATATACGGGTTGGTTCGGATCACTTTCTAATACGACTTATTTGCAACAGAAATATAATTCGCCACG (double strand) [hmuS upstream region] | binds |
| CATTTTGATGAAATTAGAATATGATTTTACTGTGTAGTACCCCTTCTGTATTTATGCATTATAAAGTCTTCTTGGGAGACAAAATTCACATAGAAACCGAAAGAAATACCACAATCGCAAATATATGCACTTTTCCTTTAAACGCGAATCAAAATATGCATAATATATTGCCCAAAAGCTGTCATTCGGATTGATTGATGGCCTCATATTGGGTTTGCA (double strand) [rgpA (PGN_1970) promoter] | binds |
| TAGCGTCATTCTTTTCATAGACTTTTCTTTTGCGTTAAACTTAAAATTATTACTGTTATGTTGTTTTCTTTTCTTCTCCGGTTTTACCCTAACCAAGGGAAGTCTCAAAAAGCCGCTACCGGCGTTAGACACAAGTCACGAAACTTCCACAACTGTCCTATGATACGGACAGCCACAAAACTAAATAAAAAAATGCAACCAGACTAATCCTATTATCC (double strand) [ragA (PGN_0293) promoter] | binds |
| CCCTTGTCGCTTATATTGAAAACATGTTCTTTATAATCCGATACTCTTCTTAAATCGAATTTTTTCTCTAAATTGCGCCGCAACAAAACTCCTTGAGAAAAGTACCAATAGAAATAGAAGGTAGCATTTTGCCTTTAAATTCCTTTTCTTTTCTTGGATTGTTCTTGAAATGAATCTTATTTGTGGATCTTTTTTGTTTTTTTAACCCGGCCGTGGTTCTCTGAATCACGACCATAAATTGTTTTAAAGT (double strand) [kgp (PGN_1728) promoter] | binds |
